Experimental findings from patent US12692310B2, “ASIC1 channel antagonist antibody” (ShanghaiTech University, priority 2019, dated 2026) are described below.

For assay [1], the system named is MCAO-induced ischemic stroke model mice. The assay can be described thus: Middle cerebral artery occlusion (MCAO)-induced ischemic stroke model. As to conditions: 4 μL i.c.v. 3 h after ischemia; 100 nM PcTx1 or 3.0 μg/μL ASC06-IgG1; 24 h after injection. In kind it is in vivo, mouse. As to the method:
The Middle Cerebral Artery Occlusion (MCAO) Model. Animal care and the experimental protocols were approved by the Animal Ethics Committee of Shanghai Jiao Tong University School of Medicine, Shanghai, China. A transient ischemic stroke in the left brain hemisphere was established in male mice (C57 BL/6, 20-25 g) using middle cerebral artery occlusion (MCAO) for 1 h before reperfusion. Three hours after ischemia, a total of 4 μL of vehicle solution (PBS) in the absence or presence of neuroprotective agents) 100 nM PcTx1 or 3.0 μg/μL endotoxin-free ASC06-IgG1 ([…])) was administered by an intracerebroventricular (i.c.v.) injection on the contralateral side of the brain hemisphere. An irrelevant endotoxin-free antibody (3.0 μg/μL, […]) was used as isotype control. […] Mice were sacrificed 24 h after the i.c.v. injection. […] The infarct area was calculated by subtracting the normal area stained with TTC in the ischemic hemisphere from that of the nonischemic hemisphere. The infarct volume was calculated by summing infarction areas of all sections and multiplying by slice thickness.
To determine if the protective effect of antibody ASC06-IgG1 in vitro could be extended to pathologies in vivo, the middle cerebral artery occlusion (MCAO) model was used to study the antibody's neuroprotective effect. […] The infarct volume of the cortex and striatum were calculated 24 hours after the injection. […]

For the next assay, the target named is T1, hASIC1a (Homo sapiens, UniProt P78348).
T1 construct: expressed in transfected cells
T1 sequence (P78348 1-528): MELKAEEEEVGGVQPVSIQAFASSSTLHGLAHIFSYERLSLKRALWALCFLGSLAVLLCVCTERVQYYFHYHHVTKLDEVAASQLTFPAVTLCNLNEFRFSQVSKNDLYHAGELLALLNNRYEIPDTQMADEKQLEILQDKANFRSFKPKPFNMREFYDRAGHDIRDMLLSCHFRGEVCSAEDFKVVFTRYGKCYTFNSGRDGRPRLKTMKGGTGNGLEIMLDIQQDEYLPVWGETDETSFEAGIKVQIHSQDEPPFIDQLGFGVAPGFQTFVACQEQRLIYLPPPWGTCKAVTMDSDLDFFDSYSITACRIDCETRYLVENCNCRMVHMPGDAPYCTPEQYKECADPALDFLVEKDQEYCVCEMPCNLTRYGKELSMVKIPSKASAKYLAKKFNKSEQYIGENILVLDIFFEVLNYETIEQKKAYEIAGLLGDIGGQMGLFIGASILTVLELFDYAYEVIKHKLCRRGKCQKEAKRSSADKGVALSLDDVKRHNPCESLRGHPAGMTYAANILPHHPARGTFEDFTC
Kind of assay: Whole-cell patch clamp, acid-induced hASIC1a currents in stable CHO-K1 cells. In kind it is cell-based. As to the method:
Electrophysiological Experiments. The inward cellular ASIC1a current was recorded from a single cell using standard whole-cell recording techniques by a patch-clamp amplifier (Axon 200B; Axon Instruments). Membrane currents were sampled and analyzed using a Digidata 1320A interface and a personal computer with Clampex and Clampfit software (Version 9.0.1; Axon Instruments). For a typical experiment, the extracellular fluid (ECF) used contained 150 mM NaCl, 5 mM KCl, 10 mM HEPES, 10 mM D-glucose, 2 mM CaCl2, and 1.0 mM MgCl2, with the osmotic pressure in the range of 320-335 mOsm, and pH 7.4 adjusted with 5 M NaOH. Patch electrodes (4-6 MΩ) contained 30 mM NaCl, 120 mM KCl, 0.5 mM CaCl2, 1 mM MgCl2, 10 mM HEPES, 2 mM MgATP, and 5 mM EGTA (pH 7.2 adjusted with 5 M KOH) at 300 mOsm. The ASIC1a activating ECF is identical to the normal ECF, except that MES was used to replace HEPES to maintain the ECF at pH 6.0. A coverslip with discretely distributed individual CHO-ASIC1a stable cells (6H7) on the surface was placed into a recording chamber under a constant perfusion (~2-3 mL/min) generated by an ALA 8 channel perfusion system (ALA Scientific Instruments Inc.) mounted on an inverted microscope. After achieving the break-in (whole-cell) configuration, the cell was voltage clamped at a holding potential of −70 mV. The normal ECF (pH 7.4) was first perfused onto the patched cell, and then, the activating ECF of pH 6.0 was rapidly applied to elicit a maximum inward ASIC1a current as control current. When testing the inhibition effect of the antibody, ECFs of pH 7.4 containing different concentrations of ASC06-IgG1 were perfused from low to high concentration into the recording chamber for 10-15 min. To measure the inhibition of the current, the activating ECFs of pH 6.0 containing the corresponding concentrations of the testing antibodies were applied to the same patched 6H7 cell to generate the inward currents that can be normalized to the control current of the same cell. […] Data acquired from four to five cells were used for statistical calculation of inhibition effects.
The function of ASC06-IgG1 was characterized using electrophysiology approach. The effect of ASC06-IgG1 antibody on the acid-induced, hASIC1a-mediated electrical current in cells was analyzed. PcTx1 was used as a positive control. […] The amplitudes of the hASIC1a-mediated inward currents of the stable cells were recorded and quantitated in the absence and presence of ASC06-IgG1, with venom peptide PcTx1 (100 nM) used as positive control. […] Unlike the sustained inhibition with the antibody after washing, the inhibition with PcTx1 could be readily washed out within 5 minutes (FIG. 5C).

Assay [2] concerns the target truncated hASIC1a (amino acids 13-464) (human) (UniProt P78348). The assay can be described thus: Octet, scFv format at 500 nM, ΔhASIC1a nanodiscs. (In BLI a coated tip is dipped into the sample, and binding shifts an interference pattern.)
The next assay addresses T2, hASIC1a-eYFP (human, UniProt P78348 1-528).
T2 construct: whole, on cells; On CHO-K1 cells, stably (6H7) or transiently transfected; also called full-length hASIC1a (1-528 amino acids) fused with eYFP; CHO-K1/hASIC1a cells; not shown: C-terminal eYFP fusion
T2 sequence (looked up): T1 sequence (P78348 1-528)
The assay can be described thus: immunocytochemistry, confocal microscopy, CHO-K1 cells expressing hASIC1a-eYFP.

In assay [3] the target is truncated hASIC1a (amino acids 13-464) (human) (UniProt P78348). Kind of assay: Octet, scFv format, ΔhASIC1a nanodiscs.
The target is the same in assay [4].

As a reminder, the Kd is the equilibrium constant for the complex coming apart. Low readings indicate tighter binding, high ones weaker binding.

Read-outs that look alike come from different tables or passages of the source. No end group written: not given here. Bounds are passed on as bounds.

As for “Psalmotoxin-1 [PcTx1, reference compound]”, in assay [1], the “infarct volume (compared with the contralateral brain region)” value was “about 17%”. Further, in the assay with hASIC1a (100 nM, positive control), the “inhibition of the acid-induced current, in words” value is “nearly complete inhibition”. Moreover, in the assay with hASIC1a (washout experiment), the “time for inhibition to be washed out” value is at most 5 min.

B1: ASC04 (scFv, V domains shown)
VH: QVQLVQSGAEVKKPGSSVKVSCKASGGTFSTYAINWVRQAPGQGLEWMGWMNPNSGNTGYAQKFQGRVTMTRNTSISTAYMELSSLRSEDTAVYYCARYSYGMDVWGQGTTVTVSS
VL: QAVLTQPSSLSASPGASVSLTCTLRSGINVGAYRIYWYQQKPGSPPQFLLRYKSDSDKQQGSGVPSRFSGSRDASANAGILLISGLRSEDEADYYCAIWHSSAWVFGGGTKLTVLG
notes: also called ASC04 scFv; ASC04 (scFv format)
B1 displayed a Response in assay [2] of 0.995. For the same molecule, the binding result with hASIC1a-eYFP was “binds”. Moreover, the Kd in assay [3] turned out to be 20.8 nM.

B2: ASC03 (scFv, V domains shown)
VH: QVQLVESGAEVKKPGSSVKVSCKASGGNFRKYSISWVRQAPGQGLEWMGWISAYNGNTNYAQKLQGRVTMTTDTSTSTAYMELRSLRSDDTAVYYCARDFDPYYDAFDIWGQGTTVTVSS
VL: QSALTQPASVSGSPGQSITISCTGTSSDVGAYNYVSWYQQHPGKAPKLMIYDVSNRLSGVSNRFSGSKSGNRASLTISGLQAEDEADYYCSSYRSGNSLAFGGGTKLTVLG
notes: also called ASC03 scFv; ASC03 (scFv format)
The molecule B2 came in with a Response in assay [2] of 0.269. The binding result with hASIC1a-eYFP was “binds”. The molecule also showed a Kd in assay [3] of 259 nM.

B3: ASC05 (scFv, V domains shown)
VH: QVQLVESGAEVKKPGASVRVSCKASGYSFTNYYMHWVRQAPGQGLEWMGIISPSGRSTSFAQKFQGRVTMTRDTSTSTVYMHLSSLRSDDTAVYYCARGAWSTDAFDIWGQGTTVTVSS
VL: QSALTQPASVSGSPGQSITISCTGTSSDVGSYNLVSWYQQHPGKAPKLMIYEGSKRPSGVSNRFSGSKSGNTASLTISGLQAEDEAEYHCSSFTGKGYVFGTGTKLTVLG
notes: also called ASC05 scFv; ASC05 (scFv format)
The molecule B3 registered a Response in assay [2] of 0.502. Further, in the assay with hASIC1a-eYFP, the binding result is listed as “binds”. Further, the Kd in assay [3] was 137 nM.

B4: ASC02 (scFv, V domains shown)
VH: QVQLVQSGAEVKKPGASMKVSCTTSGYTVTGYYIHWLRQAPGQGFEWMGWINPNLGVTNYAQKFQGRVSMTRDPSIKTAYLELSGLRSDDTAMYYCARASTGGIFYDYWGQGTLVTVSS
VL: NFMLTQPHSMSESPGKTVTISCTRSSGNIASNYVQWYQQRPGSSPTTVIYDDNQRPSGVPDRFSGSIDSISNSASLTISGLKTEDEADYYCQSYDSSSVIFGGGTKLTVLG
notes: also called ASC02 scFv; ASC02 (scFv format)
The molecule B4 had a Response in assay [2] of 0.289. In addition, in the assay with hASIC1a-eYFP, the binding result is listed as “binds”. In assay [3], this molecule had a Kd of 262 nM.

B5: venom peptide PcTx1 fused with Fc (PcTx1-Fc) (Fc fusion)
chain: EDCIPKWKGCVNRHGDCCEGLECWKRRRSFEVCVPKTPKT
modifications: ends and bridges not checked; also: fused with Fc, isotype, linker and order not given here
The molecule B5 showed a Kd in assay [4] of 1 nM.
